# In patent publication US20240066131A1 (Protagonist Therapeutics, Inc., priority 2020, published 2024):
# Positions of bridges follow the written chain, without caps; N, C: chain ends. Non-standard residues stand in square brackets, D forms with d. Residues, ends and D or L forms follow the SMILES beside them. Groups on a side chain read outwards from the residue. *: point of attachment. PEG12 = NCCOCCOCCOCCOCCOCCOCCOCCOCCOCCOCCOCCOCCC(=O)O; C18 diacid = O=C(O)CCCCCCCCCCCCCCCCC(=O)*; Dip = N[C@H](C(=O)O)C(c1ccccc1)c1ccccc1; Palmitoyl = CCCCCCCCCCCCCCCC(=O)*; β3hF = N[C@H](CC(=O)O)Cc1ccccc1; Decanoyl = CCCCCCCCCC(=O)*; Isovaleryl = CC(C)CC(=O)*; Orn = NCCC[C@H](N)C(=O)O; Abu = CC[C@H](N)C(=O)O; AEEA = NCCOCCOCC(=O)O; Ahx = NCCCCCC(=O)O
# Molecular target: T1, ferroportin endogenously expressed on T47D cells (HTB 133, ATCC) (human, UniProt Q9NP59 1-571)
# T1 sequence (looked up): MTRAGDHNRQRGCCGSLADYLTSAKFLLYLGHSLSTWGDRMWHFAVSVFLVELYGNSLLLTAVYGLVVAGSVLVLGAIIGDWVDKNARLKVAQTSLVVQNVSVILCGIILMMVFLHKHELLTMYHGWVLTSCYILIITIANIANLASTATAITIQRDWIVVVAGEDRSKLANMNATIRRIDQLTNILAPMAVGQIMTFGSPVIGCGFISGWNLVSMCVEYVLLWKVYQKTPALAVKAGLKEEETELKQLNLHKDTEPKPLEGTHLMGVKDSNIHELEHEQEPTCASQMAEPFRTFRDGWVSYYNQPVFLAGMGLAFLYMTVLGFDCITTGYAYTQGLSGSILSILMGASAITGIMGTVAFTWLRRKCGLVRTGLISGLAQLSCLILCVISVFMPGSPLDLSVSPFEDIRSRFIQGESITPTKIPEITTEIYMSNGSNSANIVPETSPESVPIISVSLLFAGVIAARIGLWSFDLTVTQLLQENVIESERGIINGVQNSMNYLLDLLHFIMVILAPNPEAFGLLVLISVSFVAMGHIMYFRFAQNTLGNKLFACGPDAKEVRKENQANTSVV
# Test: cell-based or functional assay
# Conditions: not given
row,Molecule,T47D MSA IC50 [µM]
1,XETHXPXX (N-term Butyric_Acid; Dpa4; Lys(Ahx_Palm)6; C-term N_Butyl_Phe) [Butyric_Acid-E-T-H-[Dpa]-P-[Lys(Ahx_Palm)]-N_Butyl_Phe],0.0101
2,Isovaleryl-ETH[Dip]PKK([Ahx-Palmitoyl])-NH2 (lactam 1-6 (inferred)) [Isovaleric Acid-E-T-H-[Dpa]-P-K-[Lys(Ahx_Palm)]-NH2],0.144
3,XXTHXPAIEXXR (N-term Isovaleric Acid; Dab1; Dpa4; bhPhe9; Lys(Ahx_Palm)10; C-term NH2; cyclized Dab-E (lactam)) [Isovaleric Acid-Dab-T-H-[Dpa]-P-A-I-E-[bhPhe]-[Lys(Ahx_Palm)]-R-NH2],0.00553
4,XETHXPKXX (N-term Isovaleric Acid; Dpa4; bhPhe7; Lys(Ahx_Palm)8; C-term NH2; cyclized E-K (lactam)) [Isovaleric Acid-E-T-H-[Dpa]-P-K-[bhPhe]-[Lys(Ahx_Palm)]-NH2],0.0523
5,Isovaleryl-KTH[Dip]PIE[β3hF]K([Ahx-Palmitoyl])-NH2 (lactam 1-7; SMILES CCCCCCCCCCCCCCCC(=O)NCCCCCC(=O)NCCCC[C@H](NC(=O)C[C@H](Cc1ccccc1)NC(=O)[C@@H]1CCC(=O)NCCCC[C@H](NC(=O)CC(C)C)C(=O)N[C@@H]([C@@H](C)O)C(=O)N[C@@H](Cc2c[nH]cn2)C(=O)N[C@@H](C(c2ccccc2)c2ccccc2)C(=O)N2CCC[C@H]2C(=O)N[C@@H]([C@@H](C)CC)C(=O)N1)C(N)=O) [Isovaleric Acid-K-T-H-[Dpa]-P-I-E-[bhPhe]-[Lys(Ahx_Palm)]-NH2],0.996
6,Isovaleryl-[Orn]TH[Dip]PAID[β3hF][Lys(Ahx_Palm)]R-NH2 (lactam (positions not given here); not fully specified (bridges)) [Isovaleric Acid-Orn-T-H-[Dpa]-P-A-I-D-[bhPhe]-[Lys(Ahx_Palm)]-R-NH2],0.035
7,XETHXPXX (N-term Isovaleric Acid; Dpa4; Lys(IsoGlu_Palm)6; C-term N_Butyl_Phe) [Isovaleric Acid-E-T-H-[Dpa]-P-[Lys(IsoGlu_Palm-N_Butyl_Phe],0.179
8,Isovaleryl-KTH[Dip]PAIEK([Ahx-Palmitoyl])-NH2 (lactam 1-8; SMILES CCCCCCCCCCCCCCCC(=O)NCCCCCC(=O)NCCCC[C@H](NC(=O)[C@@H]1CCC(=O)NCCCC[C@H](NC(=O)CC(C)C)C(=O)N[C@@H]([C@@H](C)O)C(=O)N[C@@H](Cc2c[nH]cn2)C(=O)N[C@@H](C(c2ccccc2)c2ccccc2)C(=O)N2CCC[C@H]2C(=O)N[C@@H](C)C(=O)N[C@@H]([C@@H](C)CC)C(=O)N1)C(N)=O) [Isovaleric Acid-K-T-H-[Dpa]-P-A-I-E-[Lys(Ahx_Palm)]-NH2],0.0312
9,Isovaleryl-ETH[Dip]PIK[β3hF]K([Ahx-Palmitoyl])-NH2 (lactam 1-7 (inferred)) [Isovaleric Acid-E-T-H-[Dpa]-P-I-K-[bhPhe]-[Lys(Ahx_Palm)]-NH2],0.0255
10,XETHXPXX (N-term Isovaleric Acid; Dpa4; Lys(Ahx_Palm)6; C-term N_Propyl_Phe) [Isovaleric Acid-E-T-H-[Dpa]-P-[Lys(Ahx_Palm)]-N_Propyl_Phe],0.0153
11,XXTHXPAIEXXR (N-term Isovaleric Acid; Orn1; Dpa4; bhPhe9; Lys(Ahx_Palm)10; C-term NH2; cyclized Orn-E (lactam)) [Isovaleric Acid-Orn-T-H-[Dpa]-P-A-I-E-[bhPhe]-[Lys(Ahx_Palm)]-R-NH2],0.00577
12,XETHXPXX (N-term Isovaleric Acid; Dpa4; Lys(Ahx_Palm)6; C-term N_Pentyl_Phe) [Isovaleric Acid-E-T-H-[Dpa]-P-[Lys(Ahx_Palm)]-N_Pentyl_Phe],0.0127
13,Isovaleryl-ETH[Dip]PAIK([AEEA-AEEA-Ahx-C18 diacid])[β3hF]-NH2 (SMILES CC[C@H](C)[C@H](NC(=O)[C@H](C)NC(=O)[C@@H]1CCCN1C(=O)[C@@H](NC(=O)[C@H](Cc1c[nH]cn1)NC(=O)[C@@H](NC(=O)[C@H](CCC(=O)O)NC(=O)CC(C)C)[C@@H](C)O)C(c1ccccc1)c1ccccc1)C(=O)N[C@@H](CCCCNC(=O)COCCOCCNC(=O)COCCOCCNC(=O)CCCCCNC(=O)CCCCCCCCCCCCCCCCC(=O)O)C(=O)N[C@H](CC(N)=O)Cc1ccccc1) [Isovaleric Acid-E-T-H-[Dpa]-P-A-I-[Lys(1Peg2_1Peg2_Ahx_C18_Diacid)]-[bhPhe]-NH2],0.143
14,Isovaleryl-ETH[Dip]PAIKK([Ahx-Palmitoyl])-NH2 (lactam 1-8 (inferred)) [Isovaleric Acid-E-T-H-[Dpa]-P-A-I-K-[Lys(Ahx_Palm)]-NH2],0.0106

# The remaining lines, values ahead:
row,T47D MSA IC50 [µM],Molecule
1,0.0461,XETHXPXX (N-term Isovaleric Acid; Dpa4; Lys(bAla_Palm)6; C-term N_Butyl_Phe) [Isovaleric Acid-E-T-H-[Dpa]-P-[Lys(bAla_Palm-N_Butyl_Phe]
2,0.00353,Isovaleryl-KTH[Dip]PAIE[β3hF]K([Ahx-Palmitoyl])-NH2 (lactam 1-8; SMILES CCCCCCCCCCCCCCCC(=O)NCCCCCC(=O)NCCCC[C@H](NC(=O)C[C@H](Cc1ccccc1)NC(=O)[C@@H]1CCC(=O)NCCCC[C@H](NC(=O)CC(C)C)C(=O)N[C@@H]([C@@H](C)O)C(=O)N[C@@H](Cc2c[nH]cn2)C(=O)N[C@@H](C(c2ccccc2)c2ccccc2)C(=O)N2CCC[C@H]2C(=O)N[C@@H](C)C(=O)N[C@@H]([C@@H](C)CC)C(=O)N1)C(N)=O) [Isovaleric Acid-K-T-H-[Dpa]-P-A-I-E-[bhPhe]-[Lys(Ahx_Palm)]-NH2]
3,0.00396,Isovaleryl-KTH[Dip]PAID[β3hF]K([Ahx-Palmitoyl])R-NH2 (lactam 1-8; SMILES CCCCCCCCCCCCCCCC(=O)NCCCCCC(=O)NCCCC[C@H](NC(=O)C[C@H](Cc1ccccc1)NC(=O)[C@@H]1CC(=O)NCCCC[C@H](NC(=O)CC(C)C)C(=O)N[C@@H]([C@@H](C)O)C(=O)N[C@@H](Cc2c[nH]cn2)C(=O)N[C@@H](C(c2ccccc2)c2ccccc2)C(=O)N2CCC[C@H]2C(=O)N[C@@H](C)C(=O)N[C@@H]([C@@H](C)CC)C(=O)N1)C(=O)N[C@@H](CCCNC(=N)N)C(N)=O) [Isovaleric Acid-K-T-H-[Dpa]-P-A-I-D-[bhPhe]-[Lys(Ahx_Palm)]-R-NH2]
4,0.0108,XETHXPAIXXXX (N-term Isovaleric Acid; Dpa4; 123 Triazole8; bhPhe9; Lys(Ahx_Palm)10; (D)Lys11; C-term NH2; cyclized A-123Triazole (side-chain C of alanine and C5 of triazole joined by a C-C bond)) [Isovaleric Acid-E-T-H-[Dpa]-P-A-I-[123 Triazole]-[bhPhe]-[Lys(Ahx_Palm)]-[(D)Lys]-NH2]
5,0.00214,Isovaleryl-ETH[Dip]PAIK[β3hF]K([Ahx-Palmitoyl])-NH2 (lactam 1-8) [Isovaleric Acid-E-T-H-[Dpa]-P-A-I-K-[bhPhe]-[Lys(Ahx_Palm)]-NH2]
6,0.0244,XETHXPXX (N-term Isovaleric Acid; Dpa4; Lys(Ahx_Palm)6; C-term N_Ethyl_Nap) [Isovaleric Acid-E-T-H-[Dpa]-P-[Lys(Ahx_Palm)]-N_Ethyl_Nap]
7,0.388,Isovaleryl-ETH[Dip]P[Abu]IK([PEG12-C18 diacid])[β3hF][dK]C-NH2 (thioether 6-11) [Isovaleric Acid-E-T-H-[Dpa]-P-Abu-I-[Lys(PEG12_C18_Diacid)]-[bhPhe]-[(D)Lys]-[Cys]-NH2]
8,0.0543,XETHXPXX (N-term Cyclohexanoic_Acid; Dpa4; Lys(Ahx_Palm)6; C-term N_Butyl_Phe) [Cyclohexanoic_Acid-E-T-H-[Dpa]-P-[Lys(Ahx_Palm)]-N_Butyl_Phe]

# Molecular target: T2, ferroportin (Homo sapiens, UniProt Q9NP59)
# T2 sequence (Q9NP59 1-571): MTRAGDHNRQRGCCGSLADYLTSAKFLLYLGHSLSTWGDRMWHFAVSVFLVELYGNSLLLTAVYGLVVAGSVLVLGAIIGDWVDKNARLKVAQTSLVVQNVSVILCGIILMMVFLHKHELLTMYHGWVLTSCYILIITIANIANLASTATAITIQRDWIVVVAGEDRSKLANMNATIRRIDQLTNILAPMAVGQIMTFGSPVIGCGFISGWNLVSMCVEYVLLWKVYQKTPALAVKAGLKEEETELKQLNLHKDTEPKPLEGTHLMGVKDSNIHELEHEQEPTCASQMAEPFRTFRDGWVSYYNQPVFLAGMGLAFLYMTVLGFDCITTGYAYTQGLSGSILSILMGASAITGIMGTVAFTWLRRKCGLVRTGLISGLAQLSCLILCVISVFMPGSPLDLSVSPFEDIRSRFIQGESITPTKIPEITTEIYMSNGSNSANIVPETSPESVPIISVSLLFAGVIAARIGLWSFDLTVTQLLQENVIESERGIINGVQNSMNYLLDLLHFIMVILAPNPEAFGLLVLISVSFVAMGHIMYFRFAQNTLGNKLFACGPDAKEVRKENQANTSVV
# Test: FPN activity assay: internalization/degradation of ferroportin-GFP in stably transfected HEK293 cells (loss of GFP fluorescence)
# Assay type: cell-based
# Conditions: Table 6A; read-out: FPN EC50
# Protocol: Following internalization, the ferroporin protein is degraded.
# A retro inverse peptide is a peptide with a reversed sequence in all D amino acids. An example is that Hy-Glu-Thr-His-NH2 becomes Hy-DHis-DThr-DGlu-NH2. The EC50 of these reference compounds for ferroportin internalization/degradation was determined according to the FPN activity assay described above. These peptides served as control standards.
row,Molecule,DC50 [µM]
1,CCCCCCCCCCCCCCCC(=O)NCCCCCC(=O)NCCOCCOCC(=O)NCCOCCOCC(=O)NCCCC[C@H](NC(=O)[C@@H](NC(=O)[C@H](C)NC(=O)[C@@H]1CCCN1C(=O)[C@@H](NC(=O)[C@H](Cc1c[nH]cn1)NC(=O)[C@@H](NC(=O)[C@H](CCC(=O)O)NC(=O)CC(C)C)[C@@H](C)O)C(c1ccccc1)c1ccccc1)[C@@H](C)CC)C(=O)N[C@H](CC(N)=O)Cc1ccccc1 [compound 101] (Isovaleryl-ETH[Dip]PAIK([AEEA-AEEA-Ahx-Palmitoyl])[β3hF]-NH2),0.0635
2,CC[C@H](C)[C@H](NC(=O)[C@H](C)NC(=O)[C@@H]1CCCN1C(=O)[C@@H](NC(=O)[C@H](Cc1c[nH]cn1)NC(=O)[C@@H](NC(=O)[C@H](CCC(=O)O)NC(=O)CC(C)C)[C@@H](C)O)C(c1ccccc1)c1ccccc1)C(=O)N[C@@H](CCCCNC(C)=O)C(N)=O [compound 12] (Isovaleryl-ETH[Dip]PAIK(Ac)-NH2),1.04

# Same assay, conditions: ferroportin-GFP HEK293 cells, compound incubated at least 18 hours; read-out: FPN IC50
row,Molecule,DC50 [µM]
1,CCCCCCCCCCCCCCCC(=O)NCCCCCC(=O)NCCCC[C@H](NC(=O)CC(C)C)C(=O)N[C@H](C(=O)N[C@@H](Cc1c[nH]cn1)C(=O)N[C@H](C(=O)N1CCC[C@H]1C(=O)N[C@@H](C)C(=O)N[C@H](C(=O)N[C@H](CCCCN)C(=O)N[C@H](CC(N)=O)Cc1ccccc1)[C@@H](C)CC)C(c1ccccc1)c1ccccc1)[C@@H](C)O [compound 203] (Isovaleryl-K([Ahx-Palmitoyl])TH[Dip]PAI[dK][β3hF]-NH2),0.654
2,CCCCCCCCCC(=O)NCCCCCC(=O)NCCCC[C@H](NC(=O)[C@@H](NC(=O)[C@H](C)NC(=O)[C@@H]1CCCN1C(=O)[C@H](Cc1ccccc1)NC(=O)[C@H](Cc1c[nH]cn1)NC(=O)[C@@H](NC(=O)[C@H](CCC(=O)O)NC(=O)CC(C)C)[C@@H](C)O)[C@@H](C)CC)C(=O)N[C@@H](Cc1ccccc1)C(=O)N[C@@H](CCC(=O)O)C(=O)N1CCC[C@H]1C(=O)N[C@@H](CCCNC(=N)N)C(=O)N[C@@H](CO)C(=O)N[C@@H](CCCCN)C(=O)NCC(=O)N[C@@H](C)C(=O)N[C@@H](CCCCN)C(N)=O [compound 244] (Isovaleryl-ETHFPAIK([Ahx-Decanoyl])FEPRSKGAK-NH2),> 3
